In US20100055121A1 (US Dept. of Health and Human Services, published 2010):

Key:
[1] = molecular target: T1, HLA-A0201 molecules on T2 (HLA-A2+) cells (human); experiment: T2 cells loaded with 25 µM peptide, brefeldin A chase, HLA-A02 flow cytometry over time
T1 construct: whole, on cells; MHC class I molecule on T2 cells; also called HLA-A2.1
Description: (§1) HLA-A2 binding assay. […] T2 cells (1×10⁶) in serum-free Iscove's modified Dulbecco's medium were incubated in the presence of various concentrations of each peptide, in 24-well culture plates at 37° C. with 5% CO₂. After 18 hours in culture, T2 cells were harvested, washed with 1× phosphate buffered saline (PBS) (Invitrogen) and stained with 20 μl of a FITC-conjugated anti-HLA-A02-specific monoclonal antibody (MAb) (One Lambda, Inc., Canoga Park, Calif.). A FITC-conjugated IgG2a MAb (BD Biosciences, San Jose, Calif.) was used as an isotype control. Data acquisition and analysis were conducted on a FACSCalibur™ system using the CELLQueSt™ software (BD Biosciences). Results were expressed as mean fluorescence intensity (MFI) collected on a log scale. […] Assuming first order kinetics, the log₂ of MFI/MFI₀ (MFI is the fluorescence at each time point and MFI₀ the initial fluorescence at time 0) was plotted against time (minutes). The decay rate constant was calculated as the slope of the linear regression for each curve and the half-life of each peptide-MHC complex was calculated as […].
In silico-predicted epitopes were then assessed for binding to the MHC molecules in a cell-based assay. TAP-deficient T2 (HLA-A2+) cells were incubated in the presence of 25 μM of each peptide and subsequently tested for cell surface MHC-stabilization by bound peptides.

[2] = molecular target: T1, HLA-A0201 molecules on T2 (HLA-A2+) …; experiment: T2 cell surface HLA-A02 stabilisation, flow cytometry, 25 µM peptide
Description: as §1
In silico-predicted epitopes were then assessed for binding to the MHC molecules in a cell-based assay. […]

half-life of MHC-peptide complex [1] [h]	binding result [2]	Binder
8.57		WLLPGTSTL (Synthesized at >90% purity) [Brachyury peptide T-p2]
	binds	SQYPSLWSV [Brachyury peptide T-p1]

Further lines, the binder ahead of its results:

Binder	half-life of MHC-peptide complex [1] [h]	binding result [2]
RLIASWTPV (Synthesized at >90% purity) [Brachyury peptide T-p3]	3.75	
AMYSFLLDFV (Synthesized at >90% purity) [Brachyury peptide T-p4]	5.2	
